Measurements reported in the supplement of paper PMC10567573.

B1: PKD2L1 (parent)
chain: YSGGGYYLDLPGSRQGSAEALRAL

Variants of: B1
Test: protein stability index of a GFP-peptide fusion (GPS, HEK-293T) (PSI 1-6); higher = more stable
Conditions: c terminus: a fixed tail appended
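Note: lentivirally expressed fusions sorted by FACS into six bins by GFP to DsRed ratio, PSI derived from sequencing read proportions per bin multiplied by bin number.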

Row | Variant | protein stability index
1 | YSGGGYYLDLPGSRQGSAEAHRAL [L21H] | 2.05
2 | YSGGGYYLDLPGSRQGSAEANRAL [L21N] | 1.99
3 | YSGGGYYLDLPGCRQGSAEALRAL [S13C] | 2.23
4 | YSGGGYYLDLPGERQGSAEALRAL [S13E] | 1.61
5 | YSGGGYYLDLPGVRQGSAEALRAL [S13V] | 2.3
6 | YSGGGYYLDLPGKRQGSAEALRAL [S13K] | 1.82
7 | YSGGGYYLDLPGGRQGSAEALRAL [S13G] | 2.58
8 | YSGGGYKLDLPGSRQGSAEALRAL [Y7K] | 2.75
9 | YSGGGYTLDLPGSRQGSAEALRAL [Y7T] | 2.71
10 | YSGGGYALDLPGSRQGSAEALRAL [Y7A] | 2.17
11 | YSGGGYFLDLPGSRQGSAEALRAL [Y7F] | 1.56
12 | YSGGGYMLDLPGSRQGSAEALRAL [Y7M] | 1.61
13 | YSGGGYDLDLPGSRQGSAEALRAL [Y7D] | 3.25
14 | YSGGGYYLDLPGSRQGSAEALDAL [R22D] | 1.26
15 | YSGGGYYLDLPGSRQGSAEALHAL [R22H] | 1.92
16 | YSGGGYYLDLPGSRQGSAEALLAL [R22L] | 1.36
17 | YSGGGYYLDLPGSRQGSAEALTAL [R22T] | 1.82
18 | YSGGGYYLDLPGSRQGSAEALAAL [R22A] | 2.13
19 | YSGGGYYLDLPGSRQGSAEALSAL [R22S] | 2.92
20 | YSGGGYYLDLPGSRQGSAEALWAL [R22W] | 3.79
21 | YSGGGYYLDLPGSRQGSAEALGAL [R22G] | 1.69
22 | YSGGGYYLDLPGSRQGSAEALIAL [R22I] | 3.18
23 | YSGGGYYLDLPGSRQGSAEALFAL [R22F] | 2.84
24 | YSGGGYYLDYPGSRQGSAEALRAL [L10Y] | 1.81

Row | Variant | protein stability index
25 | YSGGGYYLDMPGSRQGSAEALRAL [L10M] | 1.66
26 | YSGGGYYLDPPGSRQGSAEALRAL [L10P] | 1.9
27 | YSGGGYYLDNPGSRQGSAEALRAL [L10N] | 1.6
28 | YSGGGYYLDDPGSRQGSAEALRAL [L10D] | 2.02
29 | YSGGGYYLDIPGSRQGSAEALRAL [L10I] | 2.33
30 | YSGGGYYLDWPGSRQGSAEALRAL [L10W] | 1.14
31 | YSGGGYYLDEPGSRQGSAEALRAL [L10E] | 2.69
32 | YSGGGYYLDLQGSRQGSAEALRAL [P11Q] | 2.53
33 | YSGGGYYLDLCGSRQGSAEALRAL [P11C] | 1.82
34 | YSGGGYYLDLTGSRQGSAEALRAL [P11T] | 1.86
35 | YSGGGYYLDLYGSRQGSAEALRAL [P11Y] | 2
36 | YSGGGYYLDLNGSRQGSAEALRAL [P11N] | 1.97
37 | YSGGGYYLDLEGSRQGSAEALRAL [P11E] | 1.29
38 | YSGGGYYLDLAGSRQGSAEALRAL [P11A] | 1.89
39 | YSGGGYYLDLIGSRQGSAEALRAL [P11I] | 1.94
40 | YSGGGYYLDLVGSRQGSAEALRAL [P11V] | 1.85
41 | YSGGGYYLDLPGSRWGSAEALRAL [Q15W] | 1.73
42 | YSGGGYYLDLPGSRVGSAEALRAL [Q15V] | 2.99
43 | YSGGGYYLDLPGSRGGSAEALRAL [Q15G] | 1.47
44 | YSGGGYYLDLPGSRPGSAEALRAL [Q15P] | 2.03
45 | YSGGGYYLDLPGSRIGSAEALRAL [Q15I] | 3.59
46 | YSGGGYYLDLPGSRRGSAEALRAL [Q15R] | 2.27
47 | YSGGGYYLDLPWSRQGSAEALRAL [G12W] | 2.39
48 | YSGGGYYLDLPYSRQGSAEALRAL [G12Y] | 1.49

Row | Variant | protein stability index
49 | YSGGGYYLDLPVSRQGSAEALRAL [G12V] | 2.22
50 | YSGGGYYLDLPPSRQGSAEALRAL [G12P] | 2.05
51 | YSGGGYYLDLPQSRQGSAEALRAL [G12Q] | 1.95
52 | YSGGGYYLDLPASRQGSAEALRAL [G12A] | 2.05
53 | YSGGGYYLDLPESRQGSAEALRAL [G12E] | 2
54 | YSTGGYYLDLPGSRQGSAEALRAL [G3T] | 1.93
55 | YSSGGYYLDLPGSRQGSAEALRAL [G3S] | 1.73
56 | YSVGGYYLDLPGSRQGSAEALRAL [G3V] | 2.21
57 | YSNGGYYLDLPGSRQGSAEALRAL [G3N] | 1.52
58 | YSYGGYYLDLPGSRQGSAEALRAL [G3Y] | 1.7
59 | YSQGGYYLDLPGSRQGSAEALRAL [G3Q] | 1.52
60 | YSCGGYYLDLPGSRQGSAEALRAL [G3C] | 2.41
61 | YSKGGYYLDLPGSRQGSAEALRAL [G3K] | 2.37
62 | YSMGGYYLDLPGSRQGSAEALRAL [G3M] | 2.12
63 | YSGTGYYLDLPGSRQGSAEALRAL [G4T] | 2.53
64 | YSGHGYYLDLPGSRQGSAEALRAL [G4H] | 2.45
65 | YSGRGYYLDLPGSRQGSAEALRAL [G4R] | 2.48
66 | YSGKGYYLDLPGSRQGSAEALRAL [G4K] | 2.37
67 | YSGMGYYLDLPGSRQGSAEALRAL [G4M] | 2.35
68 | YSGVGYYLDLPGSRQGSAEALRAL [G4V] | 2.22
69 | YSGYGYYLDLPGSRQGSAEALRAL [G4Y] | 1.65
70 | YSGGGYYLDLPGSRQTSAEALRAL [G16T] | 1.84
71 | YSGGGYYLDLPGSRQMSAEALRAL [G16M] | 1.02
72 | YSGGGYYLDLPGSRQNSAEALRAL [G16N] | 1.51

Row | Variant | protein stability index
73 | YSGGGYYLDLPGSRQLSAEALRAL [G16L] | 1.57
74 | YSGGGYYLDLPGSRQFSAEALRAL [G16F] | 1.38
75 | YSGGGYYLDLPGSRQYSAEALRAL [G16Y] | 2.13
76 | YSGGGYYLDLPGSRQASAEALRAL [G16A] | 1.94
77 | YSGGGYYLDLPGSRQHSAEALRAL [G16H] | 2.66
78 | YSGGGYYLDLPGSRQGSAEALRTL [A23T] | 2.24
79 | YSGGGYYLDLPGSRQGSAEALRKL [A23K] | 1.72
80 | YSGGGYYLDLPGSRQGSAEALRFL [A23F] | 2.52
81 | YSGGGYYLDLPGSRQGSAEALRML [A23M] | 2.03
82 | YSGGGYYLDLPGSRQGSAEALRQL [A23Q] | 2.53
83 | YSGGGYYLDLPGSRQGSAEALRIL [A23I] | 1.66
84 | YSGGGYYLDLPGSRQGSAEALRWL [A23W] | 2.22
85 | YSGGGYYLDLPGSRQGSAEALREL [A23E] | 1.95
86 | YSGGGYYLDLPGSRQGSAEALRGL [A23G] | 1.44
87 | YTGGGYYLDLPGSRQGSAEALRAL [S2T] | 2.59
88 | YPGGGYYLDLPGSRQGSAEALRAL [S2P] | 3.27
89 | YMGGGYYLDLPGSRQGSAEALRAL [S2M] | 1.92
90 | YHGGGYYLDLPGSRQGSAEALRAL [S2H] | 2.88
91 | YVGGGYYLDLPGSRQGSAEALRAL [S2V] | 3.97
92 | YYGGGYYLDLPGSRQGSAEALRAL [S2Y] | 2.19
93 | YWGGGYYLDLPGSRQGSAEALRAL [S2W] | 2.13
94 | YDGGGYYLDLPGSRQGSAEALRAL [S2D] | 2.45
